# Results: patent US8013125B2, “Metalloproteinase 9 and metalloproteinase 2 binding proteins” (Dyax Corp., priority 2008, dated 2011)
# Entries after “also recorded” stand apart in the source; their conditions may differ.
# B1: M0237-D02: MMP-9/-2 dual reactive antibody inhibitor (parental); used as hIgG1 and Fab; VL/VH sequences in Example 7 (antibody, V domains shown)
# VL: QDIQMTQSPATLSLSPGERATLSCRASQSISSFLAWYQQKPGQAPRLLIYDASYRATGIPARFSGSGSGTDFTLTISSLEPEDYAVYYCQQRGNWPITFGQGTRLEIKRTVAAPS
# VH: EVQLLESGGGLVQPGGSLRLSCAASGFTFSQYPMWWVRQAPGKGLEWVSYIVPSGGRTYYADSVKGRFTISRDNSKNTLYLQMNSLRAEDTAVYYCAKDRAYGDYVGWNGFDYWGQGTLVTVSSASTKGPSVFPLAPSSKS
# B2: M0166-F10: inhibitory MMP-9 binding antibody (hMMP-9 antibody inhibitor) (antibody, V domains shown)
# VL: QSELTQPPSASAAPGQRVTISCSGSSSNIGSNTVTWYQKLPGTAPKLLIYNNYERPSGVPARFSGSKSGTSASLAISGLQSEDEADYYCATWDDSLIANYVFGSGTKVTVLGQPKANP
# VH: EVQLLESGGGLVQPGGSLRLSCAASGFTFSPYLMNWVRQAPGKGLEWVSSIYSSGGGTGYADSVKGRFTISRDNSKNTLYLQMNSLRAEDTAVYYCARIYHSSSGPFYGMDVWGQGTTVTVSSASTKGPSVFPLAPSSKS
# Columns and labels:
# [1] = target: T1, Human MMP-9 catalytic domain (Homo sapiens, UniProt P14780); assay: Ki determination with fluorogenic peptide substrate; assay type: biochemical; conditions: fluorogenic peptide substrates
# T1 construct: Human MMP-9 catalytic domain (BIOMOL, SE-244); purchased BIOMOL SE-244
# T1 sequence (P14780 107-449 limits assumed): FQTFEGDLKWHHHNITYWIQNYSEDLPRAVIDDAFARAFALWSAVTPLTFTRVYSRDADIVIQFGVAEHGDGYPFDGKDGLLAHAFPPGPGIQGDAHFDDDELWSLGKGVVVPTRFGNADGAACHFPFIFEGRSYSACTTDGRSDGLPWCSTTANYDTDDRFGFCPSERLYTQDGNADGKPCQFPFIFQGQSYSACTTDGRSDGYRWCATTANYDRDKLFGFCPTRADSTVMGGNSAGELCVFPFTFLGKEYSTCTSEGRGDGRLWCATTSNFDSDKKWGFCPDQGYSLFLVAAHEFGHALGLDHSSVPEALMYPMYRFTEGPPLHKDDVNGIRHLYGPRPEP
# Experimental: (§1) This example characterized the interaction of the M0237-D02 hIgG1 with the human and mouse MMP-9. The Ki was measured and the inhibition mechanism was determined.
# (§2) Materials: • Substrate: Mca -KPLGL-Dap(Dnp)-AR-NH2(SEQ ID NO: 1279) (M-2350) from BACHEM (521575). A 10mM stock solution was prepared in DMSO. • Enzymes: • Human MMP-9 catalytic domain (BIOMOL, SE-244). Enzyme concentration was measured by titration with TIMP-1 (2522-104) • Mouse MMP-9 (R&D, 909-MM), APMA-activated. • M0237-D02 hIgG1 : 2517-014. Dialysed against TCN. • TCNB: 50 mM Tris/HCl, 10 mM CaCl2, 150 mM NaCl, 0.05% Brij 35, pH 7.5. • 96-well black plates from Perkin Elmer (6005270) • Spectramax M2e to measure fluorescence emission of the substrate upon hydrolysis (temperature control set at 30° C.; λexc=328 nm and λem=393 nm)
# (§3) The enzyme (final concentration=0.23 and 0.17 nM for the human and mouse MMP-9, respectively) was preincubated with various concentrations (0-50 nM) of M0237-D02 for 1 h at 30° C. The substrate was then added to a final concentration ranging from 5 to 40 μM and initial rates were recorded.
# (§4) Each data point was measured in triplicate, and initial rates were averaged.
# (§5) Averaged initial rates were plotted against the M0237-D02 concentration for each substrate concentration, and IC50's were calculated using the following equation: […]
# (§6) The IC50 values were then plotted against the substrate concentration.
# Mouse MMP-9 = target: T2, Mouse MMP-9 (Mus musculus, UniProt P41245); assay: as above; assay type: biochemical; conditions: fluorogenic peptide substrates
# T2 construct: purchased R&D 909-MM
# T2 sequence (P41245 108-730): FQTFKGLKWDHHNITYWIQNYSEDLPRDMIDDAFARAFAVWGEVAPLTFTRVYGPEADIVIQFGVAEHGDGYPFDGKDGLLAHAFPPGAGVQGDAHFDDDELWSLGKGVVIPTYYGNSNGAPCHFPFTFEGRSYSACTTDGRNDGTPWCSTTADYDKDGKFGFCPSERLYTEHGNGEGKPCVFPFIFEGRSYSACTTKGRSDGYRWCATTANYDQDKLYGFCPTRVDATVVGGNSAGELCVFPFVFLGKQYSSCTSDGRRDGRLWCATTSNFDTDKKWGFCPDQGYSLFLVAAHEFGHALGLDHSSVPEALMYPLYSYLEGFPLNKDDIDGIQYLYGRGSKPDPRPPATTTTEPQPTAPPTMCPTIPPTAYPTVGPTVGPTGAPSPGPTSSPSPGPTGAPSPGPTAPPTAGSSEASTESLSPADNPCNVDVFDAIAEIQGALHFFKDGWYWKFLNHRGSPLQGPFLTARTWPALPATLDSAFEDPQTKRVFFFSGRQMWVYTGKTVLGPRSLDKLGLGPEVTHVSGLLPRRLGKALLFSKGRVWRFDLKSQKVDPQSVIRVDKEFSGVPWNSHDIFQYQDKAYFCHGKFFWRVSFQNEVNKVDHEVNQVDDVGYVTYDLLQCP
# Experimental: as §1, §2, §3, §4, §5, §6
# [2] = target: T1, Human MMP-9 catalytic domain; assay: Biacore binding of analyte to coated antibody; conditions: 25° C.
# Experimental: (§7) The non competitive inhibition model implies that the ternary complex enzyme-substrate-inhibitor can form. It is however possible that this complex cannot form with bigger substrates, in which case the antibody would behave as a competitive inhibitor. In order to address this issue, the ability of M0237-D02 antibody to bind to the h-MMP-9 when the enzyme is complexed to its natural inhibitor h-TIMP-1 was determined. The reasoning is that if the antibody cannot bind to the h-MMP-9/h-TIMP-1 complex, it would probably behave as a competitive inhibitor of this enzyme in the presence of bigger substrates.
# (§8) Experiments were performed at 25° C. with the help of a Biacore 3000 instrument. The MMP-9 binding protein (M0166F10) and the M0237-D02 antibody were coated to a CM5 chip either via standard amine coupling or using an anti-Fc antibody surface. Then either the active, human MMP-9 catalytic domain (BIOMOL, SE-244), the human pro-MMP-9 (R&D, 911-MP), the human TIMP-1 (R&D, 970-TM) or a h-MMP-9/h-TIMP-1 complex were flowed over the antibody surfaces, and binding was recorded.
# h-MMP-9/h-TIMP-1 complex = h-MMP-9/h-TIMP-1 complex (Homo sapiens, UniProt P14780); assay: Biacore binding of analyte to coated antibody; conditions: 25° C.
# h-MMP-9/h-TIMP-1 complex, sequence (P14780 107-449 limits assumed): as the sequence (P14780 107-449 limits assumed) above
# h-MMP-9/h-TIMP-1 complex, sequence (P01033 24-207 partner): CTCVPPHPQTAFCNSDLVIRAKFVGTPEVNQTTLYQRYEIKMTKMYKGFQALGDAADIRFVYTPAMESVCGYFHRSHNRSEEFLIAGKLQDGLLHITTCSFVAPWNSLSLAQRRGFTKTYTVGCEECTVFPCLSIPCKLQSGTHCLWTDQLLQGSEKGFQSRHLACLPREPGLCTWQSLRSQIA
# Experimental: as §7, §8
# human TIMP-1 = target: T3, human TIMP-1 (Homo sapiens, UniProt P01033); assay: Biacore binding of analyte to coated antibody; conditions: Direct capture; 25° C.
# T3 construct: purchased R&D 970-TM
# T3 sequence (P01033 24-207): as the sequence (P01033 24-207 partner) above
# Experimental: as §7, §8
# human pro-MMP-9 = target: T4, human pro-MMP-9 (Homo sapiens, UniProt P14780); assay: Biacore binding of analyte to coated antibody; conditions: Direct capture, 25° C.
# T4 construct: the human pro-MMP-9 (R&D, 911-MP); purchased R&D 911-MP
# T4 sequence (P14780 20-707 limits assumed): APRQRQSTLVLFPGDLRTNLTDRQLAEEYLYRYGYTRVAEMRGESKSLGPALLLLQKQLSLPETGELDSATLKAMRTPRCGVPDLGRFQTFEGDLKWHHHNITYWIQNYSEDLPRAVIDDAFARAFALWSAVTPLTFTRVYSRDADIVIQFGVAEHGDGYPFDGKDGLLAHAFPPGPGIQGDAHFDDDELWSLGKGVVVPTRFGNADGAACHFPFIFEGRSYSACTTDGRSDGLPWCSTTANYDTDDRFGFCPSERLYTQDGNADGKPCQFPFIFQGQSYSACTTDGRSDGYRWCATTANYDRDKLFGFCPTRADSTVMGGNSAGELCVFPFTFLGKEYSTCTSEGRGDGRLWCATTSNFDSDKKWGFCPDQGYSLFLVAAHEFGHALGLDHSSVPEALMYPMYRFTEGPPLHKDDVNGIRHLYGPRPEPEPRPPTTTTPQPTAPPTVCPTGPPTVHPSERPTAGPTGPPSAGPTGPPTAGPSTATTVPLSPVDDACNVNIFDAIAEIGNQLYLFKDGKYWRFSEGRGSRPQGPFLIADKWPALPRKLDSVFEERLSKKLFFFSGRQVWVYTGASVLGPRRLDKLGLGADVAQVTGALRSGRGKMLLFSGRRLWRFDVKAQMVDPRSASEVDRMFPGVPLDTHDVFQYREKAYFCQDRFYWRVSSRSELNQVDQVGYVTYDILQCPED
# Experimental: as §7, §8
# [3] = target: T1, Human MMP-9 catalytic domain; assay: Inhibition progress curves and kinetic analysis; assay type: biochemical; conditions: 25° C.; for kobs: substrate 9 μM
# Experimental: The kinetics of the interaction between M0237-D02 and the human MMP-9 were determined. The rates were determined using the following equation: […]
# The second order rate constant for the association of the enzyme E and the inhibitor I (kon) and the first order rate constant for the dissociation of the complex El (koff) can be calculated from inhibition progress curves obtained at different inhibitor concentrations.
# Materials: • Substrate: Mca -KPLGL-Dap(Dnp)-AR-NH2(SEQ ID NO: 1279) (M-2350) from BACHEM (521575). A 10mM stock solution was prepared in DMSO. • Human MMP-9 catalytic domain (BIOMOL, SE-244). • M0237-D02 hIgG1 : 2517-068. • All measurements were performed at 25° C. in TCNB: 50 mM Tris/HCl, 10 mM CaCl2, 150mM NaCl 0.05% Brij 35, pH 7.5. • 96-well black plates from Perkin Elmer (6005270) • Spectramax M2e to measure fluorescence emission of the substrate upon hydrolysis (λexc=328 nm and λem=393 nm)
# The enzyme (at a final concentration ranging from 1.5 to 12.3 nM), the substrate (9 μM final) and the M0237-D02 antibody were mixed, and the fluorescence was immediately recorded in order to follow the hydrolysis of the substrate. The observed inhibition rate (kobs) was obtained by analyzing the progress curves with a single exponential. The value for kon and koff were calculated from the plot of the kobs vs. the antibody concentration using the following equation: kobs=kon[I]+koff
# kobs was measured at four antibody concentrations (table below): […]
# [4] = system: gelatinolytic activity (tumoral MMP-2-9) in Colo205 tumor sections; assay: Film in situ zymography (FIZ); assay type: biochemical, human; conditions: 500 nM, 37° C. overnight
# Experimental: (§9) PBS-control treated tumors were screened with M0237-D02 for gelatinase expression using the FIZ approach. The tumors tested were Colo205 and MCF-7. Briefly, frozen slides of tumpor sections were dried at room temperature and 200 μl of in situ Zymo buffer (TCNB)+20 μg/ml of gelatin quenched substrate from molecular probes was added. The slides were incubate at 37° c. overnight in the presence of M0237-D02 at 500 nM or GM6001 used as a positive control at 100 μM. The substrate was washed in MilliQ (3 times) and the mounted slides were treated with anti-Fade+Dapi mounting medium.
# [5] = system: gelatinolytic activity (tumoral MMP-2-9) in MCF-7 tumor sections; assay: Film in situ zymography (FIZ); assay type: biochemical, human; conditions: 500 nM, 37° C. overnight
# Experimental: as §9
# [6] = system: inflammatory cell infiltration into the carrageenan-stimulated mouse air pouch; assay: Carrageenan-stimulated mouse air pouch model; assay type: in vivo; conditions: FIG. 2
# Excerpt: (§10) The purpose of the following experiments were to determine the effect of 539A-M0237-D02 on inflammation and specifically on inflammatory cell infiltration into the carrageenan-stimulated mouse air pouch and on the arthritic index in collagen-induced arthritis (CIA) mice.
# For the carrageenan-stimulated mouse air pouch model, subcutaneous injection of air into the hind flank or back of mice produces an air pouch in a week, the interior surface of which contains both fibroblast-like and macrophage-like cells. Inflammatory stimulation of the pouch results in leukocyte recruitment to the pouch and release of mediators (cytokines) into the exudate. Preventing inflammatory cell infiltration into the air pouch may translate into preventing inflammation of the synovium in rheumatoid arthritis.
# The effect of 539A-M0237-D02 on inflammatory cell infiltration was compared to inflammatory cell infiltration indomethacin and a control (PBS). In addition, inflammatory cell recruitment was compared to an unstimulated mouse.
# [7] = system: collagen-induced arthritis (CIA) mice; assay: Collagen-induced arthritis (CIA) mice; assay type: in vivo, mouse; conditions: CIA model, compared to untreated mice; FIG. 3
# Excerpt: as §10
# The collagen-induced arthritis (CIA) was produced by the immunization of susceptible strains of mice with native type II collagen. The collagen was emulsified in Freund's complete adjuvant and injected subcutaneously. A booster injection of collagen in incomplete adjuvant was given IP 21 days after the initial immunization. The disease is due to an auto-immune response induced upon immunization with collagen.
# The effect 539A-M0237-D02 on the arthritic index was compared to administration of methotrexate (MTX).
# [8] = Direct capture (amine coupling) of antibody on CM5 chip
# [9] = Fc capture (anti-Fc antibody surface)
# [10] = from plot of kobs vs. the antibody concentration
molecule,measurement,setting,value
B1,inhibition model,[1],non competitive inhibitor
same,inhibition model,Mouse MMP-9,non competitive inhibitor
same,Binding of Cat-huMMP-9,[2]; [8],No
same,Binding of Cat-huMMP-9,[2]; [9],could be observed only if this antibody was captured via an anti-Fc antibody
same,Binding of Cat-huMMP-9,"[2]; Fc capture (anti-Fc antibody surface), listed as 539A-M0237D02",Yes
same,Binding of huTIMP-1/cat-huMMP-9,h-MMP-9/h-TIMP-1 complex; Direct capture,No
same,Binding of huTIMP-1/cat-huMMP-9,h-MMP-9/h-TIMP-1 complex; Fc capture,no binding was observed; also recorded: cannot bind
same,Binding of huTIMP-1/cat-huMMP-9,"h-MMP-9/h-TIMP-1 complex; Fc capture, listed as 539A-M0237D02",No
same,Binding of huTIMP-1,human TIMP-1,No
same,Binding of Pro-huMMP-9,human pro-MMP-9; listed as 539A-M0237D02,No
same,Binding of Pro-huMMP-9,human pro-MMP-9; listed as M237-D02,observed neither
same,kobs,[3]; M0237-D02 concentration 14.4 nM,0.0013 s⁻¹
same,kobs,[3]; M0237-D02 concentration 19.2 nM,0.0019 s⁻¹
same,kobs,[3]; M0237-D02 concentration 28.8 nM,0.0024 s⁻¹
same,kobs,[3]; M0237-D02 concentration 115.2 nM,0.0086 s⁻¹
same,koff,[3]; [10],~4 10^−4 s^−1
same,kon,[3]; [10],~7 10^4 M^−1 s^−1
same,inhibition of gelatinolytic activity,[4],complete inhibition
same,inhibition of gelatinolytic activity,[5],complete inhibition
same,lymphocyte infiltration,[6],significantly decreased
same,neutrophil infiltration,[6],significantly decreased
same,total white blood cell infiltration,[6],significantly decreased
same,arthritic index,[7],decreased
B2,Binding of Cat-huMMP-9,[2]; [8],binds
same,Binding of Cat-huMMP-9,"[2]; Direct capture (amine coupling) of antibody on CM5 chip, listed as 539A-M0166F10",Yes
same,Binding of Cat-huMMP-9,[2]; [9],binds
same,Binding of Cat-huMMP-9,"[2]; Fc capture (anti-Fc antibody surface), listed as 539A-M0166F10",Yes
same,Binding of huTIMP-1/cat-huMMP-9,h-MMP-9/h-TIMP-1 complex; Direct capture,no binding was observed
same,Binding of huTIMP-1/cat-huMMP-9,"h-MMP-9/h-TIMP-1 complex; Direct capture, listed as 539A-M0166F10",No
same,Binding of huTIMP-1,human TIMP-1,No
same,Binding of Pro-huMMP-9,human pro-MMP-9,observed neither
same,Binding of Pro-huMMP-9,human pro-MMP-9; listed as 539A-M0166F10,~No
